Residue numbers refer to the chain shown, from its start.
T1: QHB-DB (QHB/OsWOX5 DNA-binding domain) (Oryza sativa (rice), UniProt Q8W0F1 1-82)
T1 sequence: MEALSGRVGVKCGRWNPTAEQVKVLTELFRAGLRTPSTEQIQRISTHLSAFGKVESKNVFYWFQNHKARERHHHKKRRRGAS

B1: P2 (dsDNA)
DNA 1: TTTTATAATTAATCACTCCTTGCTGCTTAATCACCCAATTAATCACACCTGATCTACCCA
DNA 2: TGGGTAGATCAGGTGTGATTAATTGGGTGATTAAGCAGCAAGGAGTGATTAATTATAAAA
B2: M3 (Core 3 mutated) (dsDNA)
DNA 1: B1 DNA 1 with T39C, T40C, A41G, A42G
DNA 2: B1 DNA 2 with T19C, T20C, A21G, A22G
B3: M1 (Core 1 mutated) (dsDNA)
DNA 1: B1 DNA 1 with A7G, A8G, T9C, T10C, A11G, A12G
DNA 2: B1 DNA 2 with T49C, T50C, A51G, A52G, T53C, T54C
B4: P1 (dsDNA)
DNA 1: AAAGATAATAAAAATGTTTATTTCGATGCATTAATTAGTTGTTAGAGTCTTTTGTTGTGT
DNA 2: ACACAACAAAAGACTCTAACAACTAATTAATGCATCGAAATAAACATTTTTATTATCTTT
B5: Positive control (AGAMOUS intron) (dsDNA)
DNA 1: ATGTCTATTGGATTTATACCCAATGTGTTAATGGGTTGTTGACACATGTCACATGTCTGA
DNA 2: TCAGACATGTGACATGTGTCAACAACCCATTAACACATTGGGTATAAATCCAATAGACAT
B6: P3 (dsDNA)
DNA 1: GTAGATGGTACCCGCTGCAGTAAGCCTCCATTAAGCTTGAATTGCTGCTCCCTTGGGCGC
DNA 2: GCGCCCAAGGGAGCAGCAATTCAAGCTTAATGGAGGCTTACTGCAGCGGGTACCATCTAC

target: T1, QHB-DB (QHB/OsWOX5 DNA-binding domain); assay: EMSA

**Q.** Does B1 bind?
**A.** binds

**Q.** Does B2 bind?
**A.** no binding

**Q.** Does B3 bind?
**A.** no binding

**Q.** Does B4 bind?
**A.** no binding

**Q.** Does B5 bind?
**A.** binds

**Q.** Does B6 bind?
**A.** no binding
